Results reported in publication PMC7733473, “Aberrant interaction of FUS with the U1 snRNA provides a molecular mechanism of FUS induced amyotrophic lateral sclerosis”.

Experiments:
FUS-RRM (RRM-RGG2) [1] = target: FUS-RRM (RRM-RGG2) (UniProt P35637); assay: ITC; conditions: n = 0.85; K = (1.25 ± 0.08)e5; 13C/15N in RNA-observed NMR; ITC: 10 mM Na phosphate pH 6.8, 50 mM NaCl, 1 mM β-mercaptoethanol, 25 °C; NMR 313 K; SEC: 10 mM Na phosphate pH 6.8, 100 mM NaCl, 2 mM DTT; EMSA: 10 mM HEPES …
FUS-RBD (RRM-RGG2-ZnF) [2] = assay: ITC; conditions: n = 0.92; K = (1.37 ± 0.23)e7; ITC: 10 mM Na phosphate pH 6.8, 50 mM NaCl, 1 mM β-mercaptoethanol, 25 °C; NMR 313 K; SEC: 10 mM Na phosphate pH 6.8, 100 mM NaCl, 2 mM DTT; EMSA: 10 mM HEPES …
FUS-RBD (RRM-RGG2-ZnF) [3] = assay: competition; conditions: equimolar Sm proteins and U1-70K (1-216) present; ITC: 10 mM Na phosphate pH 6.8, 50 mM NaCl, 1 mM β-mercaptoethanol, 25 °C; NMR 313 K; SEC: 10 mM Na phosphate pH 6.8, 100 mM NaCl, 2 mM DTT; EMSA: 10 mM HEPES …; scale: % reduction of FUS capacity to impair core snRNP assembly
[4] = test system: FUS-RBD WT, EMSA construct; assay: EMSA; conditions: 5 mM Mg2+, yeast tRNA and salmon sperm DNA; value given jointly with ITC; ITC: 10 mM Na phosphate pH 6.8, 50 mM NaCl, 1 mM β-mercaptoethanol, 25 °C; NMR 313 K; SEC: 10 mM Na phosphate pH 6.8, 100 mM NaCl, 2 mM DTT; EMSA: 10 mM HEPES …
FUS-RRM (RRM-RGG2) [5] = target: FUS-RRM (RRM-RGG2) (UniProt P35637 260-390); assay: NMR titration; ITC: 10 mM Na phosphate pH 6.8, 50 mM NaCl, 1 mM β-mercaptoethanol, 25 °C; NMR 313 K; SEC: 10 mM Na phosphate pH 6.8, 100 mM NaCl, 2 mM DTT; EMSA: 10 mM HEPES pH 7.3, 100 mM KCl, 5 mM MgCl2, tRNA and ssDNA 10 µg/ml each, room temperature; conditions: protein: recombinant
Sequence of FUS-RRM (RRM-RGG2) (UniProt P35637 260-390) (P35637 260-390): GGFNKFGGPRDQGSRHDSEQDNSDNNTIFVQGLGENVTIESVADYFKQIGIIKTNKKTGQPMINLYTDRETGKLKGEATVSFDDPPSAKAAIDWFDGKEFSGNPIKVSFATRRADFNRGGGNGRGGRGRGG

Sequence of FUS-RRM (RRM-RGG2) (UniProt P35637) (P35637 260-390): as above

U1 SL3
Kd (FUS-RRM (RRM-RGG2) [1]): 8000 nM

U1 SL34
Kd (FUS-RBD (RRM-RGG2-ZnF) [2]): 70 nM | binding signal (FUS-RBD (RRM-RGG2-ZnF) [3]): 75 | Kd [4]: 70 nM

UAUACUAA (ssRNA) [U6 21-28]
binding result (FUS-RRM (RRM-RGG2) [5]; single strand): binds

GGACUUGAAAUAUAGUCC (structured_RNA) [U4 3'-ISL fragment]
binding result (FUS-RRM (RRM-RGG2) [5]; hairpin): binds

GGCUCUGGUUUCUUCGGGAACAACUCUGAGCC (structured_RNA) [U5 IL-1 fragment]
binding result (FUS-RRM (RRM-RGG2) [5]; hairpin with internal bulge, UUCG loop): binds
